{"source": "paper PMC10703496", "data": [{"molecular_target": "6×His-tagged receptor-binding domain (RBD) of SARS-CoV-2 spike, B.1.617.2 (Delta) (SARS-CoV-2) (UniProt P0DTC2)", "experiment": "SPR", "units": {"Kd": "nM", "koff": "s⁻¹", "kon": "M⁻¹ s⁻¹"}, "values": [{"substance": "ACE2(18–615)-QMP: monomeric ACE2 peptidase domain (residues 18–615) fused to the N-terminal end of QMP human albumin (from UniProt Q9BYF1-1;P02768)", "Kd": 80.3, "koff": 0.0258, "kon": 321000}, {"substance": "ACE2(18–615)-WT: monomeric ACE2 peptidase domain (residues 18–615) fused to the N-terminal end of fu (from UniProt Q9BYF1-1;P02768)", "Kd": 175, "koff": 0.0083, "kon": 47000}, {"substance": "ACE2(18–740)-QMP: truncated dimeric human ACE2 (residues 18–740) fused to the N-terminal end of engi (from UniProt Q9BYF1-1;P02768)", "Kd": 2, "koff": 0.00024, "kon": 119000}, {"substance": "ACE2(18–740)-WT: truncated dimeric human ACE2 (residues 18–740) fused to the N-terminal end of full- (from UniProt Q9BYF1-1;P02768)", "Kd": 1.3, "koff": 0.00021, "kon": 159000}, {"substance": "ACE2-YTY-QMP: dimeric ACE2 with T27Y/L79T/N330Y (YTY) fused to QMP albumin (from UniProt Q9BYF1-1;P02768)", "Kd": 0.2, "koff": "4e-05", "kon": 201000}]}]}
